The text below walks through data of patent US20220072098A1 (priority 2012, published 2022).

This data set in a line: Tissue distribution of trypsinogen-AlexaFluor-488 after i.v. injection. In kind it is in vivo, mice. As to conditions: 200 μg i.v., 30 min. Here is the method:
Trypsinogen—AlexaFluor®-488 was injected i.v. in its free form or encapsulated in the bolavesicles. At 30 min after the injection, mice were anesthetized by Xylazine-Ketamine mixture and blood was withdrawn through cardiac puncture, the mouse was perfused with 10 ml PBS and tissues were dissected out. The dissected tissues were attached to labeled paper stripes, frozen in isopentane cooled over liquid nitrogen, and stored at −80° C. The selected tissues were cryosectioned and the fluorescence of the sections was analyzed using confocal fluorescent microscopy. All images were acquired using the same imaging settings and were not corrected or modified. Fluorescence of slices from different organs was quantified by imaging software after subtracting background fluorescence. In effect, for quantifying the fluorescence in the tissue, the average fluorescence obtained from the control mice, which were injected with PBS instead of the fluorescent material was subtracted from the fluorescence values obtained from the same tissue taken from animals that received Trypsinogen-AlexaFluor®-488. At least 4 slices from each organ of each mouse were used for the quantitative analysis and each group contained 4-5 mice.
Prior to delivering GDNF to the brain, pilot experiment, in vivo, studies were carried out with the model protein—trypsinogen, which was labeled for this purpose with AlexaFluor®-488. […]

B1: free labeled protein: free trypsinogen labeled with AlexaFluor-488 (protein, UniProt P00760 18-246, looked up)
pro-form: VDDDDKIVGGYTCGANTVPYQVSLNSGYHFCGGSLINSQWVVSAAHCYKSGIQVRLGEDNINVVEGNEQFISASKSIVHPSYNSNTLNNDIMLIKLKSAASLNSRVASISLPTSCASAGTQCLISGWGNTKSSGTSYPDVLKCLKAPILSDSSCKSAYPGQITSNMFCAGYLEGGKDSCQGDSGGPVVCSGKLQGIVSWGSGCAQKNKPGVYTKVCNYVSWIKQTIASN
modifications: pro-form AlexaFluor-488 label
Regarding B1, the “labeled trypsinogen fluorescence in kidney” value is “high fluorescence”.
